Experimental data published in PMC10816986, “The Role of Key Amino Acids of the Human Fe(II)/2OG-Dependent Dioxygenase ALKBH3 in Structural Dynamics and Repair Activity toward Methylated DNA” (International Journal of Molecular Sciences, 2024).
Positions count from the first letter of the chain named.

Tests used:
[1] = target: T1, ALKBH3 L177A (Homo sapiens, UniProt Q96Q83 1-286, L177A); assay: intrinsic Trp fluorescence titration; apoprotein, 2 mM EDTA, no Fe(II)/2OG; Titration: 50 mM HEPES-KOH pH 7.8, 50 mM KCl, 10 mM MgCl2, 2 mM EDTA, 25 °C, 1 µM apoprotein; stopped-flow: with Fe(II) and 2OG, 0.5-4.0 µM DNA (buffer not in material); settings: protein: recombinant; (Ni-chelating purification); single strand
T1 sequence: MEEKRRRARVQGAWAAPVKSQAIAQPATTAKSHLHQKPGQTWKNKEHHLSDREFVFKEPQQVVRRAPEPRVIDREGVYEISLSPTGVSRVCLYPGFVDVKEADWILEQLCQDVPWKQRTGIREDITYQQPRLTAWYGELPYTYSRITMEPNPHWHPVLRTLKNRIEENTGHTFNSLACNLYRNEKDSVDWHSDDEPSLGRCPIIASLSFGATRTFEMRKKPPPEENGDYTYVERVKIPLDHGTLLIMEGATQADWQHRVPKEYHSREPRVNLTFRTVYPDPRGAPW

[2] = target: T2, ALKBH3 wt (Homo sapiens, UniProt Q96Q83 1-286); assay: as above; settings: protein: recombinant; tags: N-terminal His-tag (pET28a); single strand
T2 sequence: T1 sequence with A177L

[3] = target: T3, ALKBH3 Y143A (Homo sapiens, UniProt Q96Q83 1-286, Y143A); assay: as above; settings: protein: recombinant; tags: N-terminal His-tag (pET28a); single strand
T3 sequence: T1 sequence with Y143A, A177L

[4] = target: T4, ALKBH3 H191A (Homo sapiens, UniProt Q96Q83 1-286, H191A); assay: as above; settings: protein: recombinant; (Ni-chelating purification); single strand
T4 sequence: T1 sequence with A177L, H191A

[5] = target: T2, ALKBH3 wt; assay: stopped-flow FRET kinetics (DynaFit); Fe(II), 2OG; overall Ka = K1+K1K2+K1K2K3; Titration: 50 mM HEPES-KOH pH 7.8, 50 mM KCl, 10 mM MgCl2, 2 mM EDTA, 25 °C, 1 µM apoprotein; stopped-flow: with Fe(II) and 2OG, 0.5-4.0 µM DNA (buffer not in material); settings: protein: recombinant; tags: N-terminal His-tag (pET28a); label: 5'-6-FAM, 3'-BHQ1; single strand
[6] = target: T5, ALKBH3 Y143F (Homo sapiens, UniProt Q96Q83 1-286, Y143F); assay: as above; settings: protein: recombinant; tags: N-terminal His-tag (pET28a); label: 5'-6-FAM, 3'-BHQ1; single strand
T5 sequence: T1 sequence with Y143F, A177L

[7] = target: T2, ALKBH3 wt; assay: stopped-flow FRET kinetics (DynaFit); Fe(II), 2OG; enzyme-product complex; Titration: 50 mM HEPES-KOH pH 7.8, 50 mM KCl, 10 mM MgCl2, 2 mM EDTA, 25 °C, 1 µM apoprotein; stopped-flow: with Fe(II) and 2OG, 0.5-4.0 µM DNA (buffer not in material); settings: protein: recombinant; tags: N-terminal His-tag (pET28a); label: 5'-6-FAM, 3'-BHQ1; single strand
[8] = target: T5, ALKBH3 Y143F; assay: as above; settings: protein: recombinant; tags: N-terminal His-tag (pET28a); label: 5'-6-FAM, 3'-BHQ1; single strand
[9] = tested on: single-stranded DNA substrate m3C_FAM; set-up: method as in PMID 35956910; settings: similar m3C-containing substrate, identical conditions; cited from earlier work
[10] = set-up: method as in PMID 35956910, doi:10.1134/S1068162019060190; settings: previous investigations; read-out: Kd for complexes with transitional metals and 2OG; cited from earlier work
[11] = tested on: m3C_FRET substrate (m3C-containing DNA); set-up: method as in PMID 31847292; settings: AlkB-ssDNA, pre-steady-state; cited from earlier work
[12] = set-up: method as in PMID 22443471; settings: cited from earlier work

ACAGGATCCGGCATA (ssDNA, N3-methylcytosine at position 9) [m3C]
Kd [1]: 5.7 ± 0.3 µM
Kd [2]: 2.8 ± 0.1 µM
Kd [3]: 6.3 ± 0.6 µM
Kd [4]: 4.3 ± 0.3 µM

ACAGGATCCGGCATA (ssDNA, N3-methylcytosine at position 9) [m3C_FRET]
Ka [5]: 1.9e+06 M⁻¹
Ka [6]: 1.4e+06 M⁻¹

ACAGGATCCGGCATA (ssDNA, none (m3C demethylated to C)) [m3C_FRET repaired product]
Kd [7]: 0.72 µM
Kd [8]: 0.083 µM

B1: ALKBH2: human AlkB homolog 2 dioxygenase, literature comparison (protein, UniProt Q6NS38 1-261, looked up)
DNA oxidative demethylase …: MDRFLVKGAQGGLLRKQEEQEPTGEEPAVLGGDKESTRKRPRREAPGNGGHSAGPSWRHIRAEGLDCSYTVLFGKAEADEIFQELEKEVEYFTGALARVQVFGKWHSVPRKQATYGDAGLTYTFSGLTLSPKPWIPVLERIRDHVSGVTGQTFNFVLINRYKDGCDHIGEHRDDERELAPGSPIASVSFGACRDFVFRHKDSRGKSPSRRVAVVRLPLAHGSLLMMNHPTNTHWYHSLPVRKKVLAPRVNLTFRKILLTKK
observed rate constant for demethylation, kobs [9]: 0.22 min⁻¹
Kd [10]: 15 to 50 µM

B2: AlkB: E. coli AlkB dioxygenase, literature comparison (protein, UniProt P05050 1-216, looked up)
Alpha-ketoglutarate-dependent …: MLDLFADAEPWQEPLAAGAVILRRFAFNAAEQLIRDINDVASQSPFRQMVTPGGYTMSVAMTNCGHLGWTTHRQGYLYSPIDPQTNKPWPAMPQSFHNLCQRAATAAGYPDFQPDACLINRYAPGAKLSLHQDKDEPDLRAPIVSVSLGLPAIFQFGGLKRNDPLKRLLLEHGDVVVWGGESRLFYHGIQPLKAGFHPLTIDCRYNLTFRQAGKKE
kr (hydroxylation of the substrate's methyl group) [11]: 0.19 s⁻¹
Tm [12]: 54 °C
Kd [10]: 15 to 50 µM
